Data reported in PMC3735194 (mBio, 2013).

B1: D166A mutant ADI (enzyme, UniProt P0C0B3 1-411, looked up)
chain: MTAQTPIHVYSEIGKLKKVLLHRPGKEIENLMPDYLERLLFDDIPFLEDAQKEHDAFAQALRDEGIEVLYLETLAAESLVTPEIREAFIDEYLSEANIRGRATKKAIRELLMAIEDNQELIEKTMAGVQKSELPEIPASEKGLTDLVESNYPFAIDPMPNLYFTRAPFATIGTGVSLNHMFSETRNRETLYGKYIFTHHPIYGGGKVPMVYDRNETTRIEGGDELVLSKDVLAVGISQRTDAASIEKLLVNIFKQNLGFKKVLAFEFANNRKFMHLDTVFTMVDYDKFTIHPEIEGDLRVYSVTYDNEELHIVEEKGDLAELLAANLGVEKVDLIRCGGDNLVAAGREQWNDGSNTLTIAPGVVVVYNRNTITNAILESKGLKLIKIHGSELVRGRGGPRCMSMPFEREDI
B2: E220A mutant ADI (enzyme, UniProt P0C0B3 1-411, looked up)
chain: MTAQTPIHVYSEIGKLKKVLLHRPGKEIENLMPDYLERLLFDDIPFLEDAQKEHDAFAQALRDEGIEVLYLETLAAESLVTPEIREAFIDEYLSEANIRGRATKKAIRELLMAIEDNQELIEKTMAGVQKSELPEIPASEKGLTDLVESNYPFAIDPMPNLYFTRDPFATIGTGVSLNHMFSETRNRETLYGKYIFTHHPIYGGGKVPMVYDRNETTRIAGGDELVLSKDVLAVGISQRTDAASIEKLLVNIFKQNLGFKKVLAFEFANNRKFMHLDTVFTMVDYDKFTIHPEIEGDLRVYSVTYDNEELHIVEEKGDLAELLAANLGVEKVDLIRCGGDNLVAAGREQWNDGSNTLTIAPGVVVVYNRNTITNAILESKGLKLIKIHGSELVRGRGGPRCMSMPFEREDI
B3: H275A mutant ADI (enzyme, UniProt P0C0B3 1-411, looked up)
chain: MTAQTPIHVYSEIGKLKKVLLHRPGKEIENLMPDYLERLLFDDIPFLEDAQKEHDAFAQALRDEGIEVLYLETLAAESLVTPEIREAFIDEYLSEANIRGRATKKAIRELLMAIEDNQELIEKTMAGVQKSELPEIPASEKGLTDLVESNYPFAIDPMPNLYFTRDPFATIGTGVSLNHMFSETRNRETLYGKYIFTHHPIYGGGKVPMVYDRNETTRIEGGDELVLSKDVLAVGISQRTDAASIEKLLVNIFKQNLGFKKVLAFEFANNRKFMALDTVFTMVDYDKFTIHPEIEGDLRVYSVTYDNEELHIVEEKGDLAELLAANLGVEKVDLIRCGGDNLVAAGREQWNDGSNTLTIAPGVVVVYNRNTITNAILESKGLKLIKIHGSELVRGRGGPRCMSMPFEREDI
B4: D277A mutant ADI (enzyme, UniProt P0C0B3 1-411, looked up)
chain: MTAQTPIHVYSEIGKLKKVLLHRPGKEIENLMPDYLERLLFDDIPFLEDAQKEHDAFAQALRDEGIEVLYLETLAAESLVTPEIREAFIDEYLSEANIRGRATKKAIRELLMAIEDNQELIEKTMAGVQKSELPEIPASEKGLTDLVESNYPFAIDPMPNLYFTRDPFATIGTGVSLNHMFSETRNRETLYGKYIFTHHPIYGGGKVPMVYDRNETTRIEGGDELVLSKDVLAVGISQRTDAASIEKLLVNIFKQNLGFKKVLAFEFANNRKFMHLATVFTMVDYDKFTIHPEIEGDLRVYSVTYDNEELHIVEEKGDLAELLAANLGVEKVDLIRCGGDNLVAAGREQWNDGSNTLTIAPGVVVVYNRNTITNAILESKGLKLIKIHGSELVRGRGGPRCMSMPFEREDI
B5: C401A mutant ADI (enzyme, UniProt P0C0B3 1-411, looked up)
chain: MTAQTPIHVYSEIGKLKKVLLHRPGKEIENLMPDYLERLLFDDIPFLEDAQKEHDAFAQALRDEGIEVLYLETLAAESLVTPEIREAFIDEYLSEANIRGRATKKAIRELLMAIEDNQELIEKTMAGVQKSELPEIPASEKGLTDLVESNYPFAIDPMPNLYFTRDPFATIGTGVSLNHMFSETRNRETLYGKYIFTHHPIYGGGKVPMVYDRNETTRIEGGDELVLSKDVLAVGISQRTDAASIEKLLVNIFKQNLGFKKVLAFEFANNRKFMHLDTVFTMVDYDKFTIHPEIEGDLRVYSVTYDNEELHIVEEKGDLAELLAANLGVEKVDLIRCGGDNLVAAGREQWNDGSNTLTIAPGVVVVYNRNTITNAILESKGLKLIKIHGSELVRGRGGPRAMSMPFEREDI

Target: the molecule itself
Assay: native MS

| Protein | stoichiometry N |
| --- | --- |
| B1 | 2 |
| B2 | 2 |
| B3 | 2 |
| B4 | 2 |
| B5 | 4 |
